{"source": "patent US7166733B2", "about": "“O,O'-Amidomalonate and N,O-Amidomalonate platinum complexes” (priority 2000, dated 2007)", "key": {"[1]": {"assay": "Percent Pt released versus pH over time in citrate PBS", "assay_type": "physicochemical", "details": "37° C.", "description": "A stock solution of citrate PBS that was 10 mM in citrate, 20 mM in phosphate, and 100 mM in NaCl was prepared and split into bottles which were then adjusted to the desired pH. The bottles were warmed to 37° C. in an oven and poly(HPMA)-GFLG-Ama=Pt(NH3)2, N,O-chelate, ˜20 kDa, was added to give a concentration of approximately 2 mg of polymer platinum conjugate per mL buffer. The mixtures were well mixed to give colorless solutions. At the indicated times, three approximately 2.5 mL aliquots were removed from the solution at each pH and transferred to previously washed YM-3 ultracentrifuge devices (Amicon) and spun at 5000 RCF and 37° C. for 50 min. Once all samples for all time points have been collected and prepared, the filtrates and stock solutions are analyzed against Pt standards (0–10 ppm) by ICP-OES at the platinum emission line of 214.42 nm. For each time point and at each pH, three samples were prepared and analyzed."}, "Bl6FI0 melanoma cells": {"tested_on": "Bl6FI0 melanoma cells", "assay": "Clonogenic (colony-formation) assay", "assay_type": "cell-based, murine", "details": "7 days incubation", "description": "The relative cytotoxic activity of various O,O′—Pt chelate analogs were evaluated in vitro by means of a clonogenic (colony-formation) assay employing a tissue culture of Bl6FI0 melanoma cells. In this way, the activity of the analogs was compared to that of cisplatin and carboplatin. The effect of conversion to an N,O—Pt chelate was also evaluated. Briefly, cells were seeded into culture dishes and allowed to attach. The cultures were incubated for 7 days in medium containing the desired concentration of the test agent. After fixation, the number of cell clusters containing >50 cells was scored as a colony. Each concentration of test agent was assayed in triplicate. The mean number of colonies in each of the triplicate dishes was divided by the mean number of colonies in the control (no test agent) dishes to obtain a percent survival value for each concentration of test agent. The IC50 (concentration resulting in 50% inhibition of growth) of each of the agents was determined by linear regression analysis using the data values directly above and below the 50% survival point."}}, "note": "Where “and” joins values, the source holds several entries; their conditions need not be identical. Equal values may be shown once."}
{"substance": "poly(HPMA)-GFLG-Ama=Pt(NH3)2, N,O—Pt chelate [Example 4]", "values": [{"measurement": "percent Pt released", "setting": "[1]; pH 3.4, citrate PBS, 1 h", "result": 2.0, "unit": "%"}, {"measurement": "percent Pt released", "setting": "[1]; pH 3.4, citrate PBS, 2 h", "result": "4.2 ± 0.1", "unit": "%"}, {"measurement": "percent Pt released", "setting": "[1]; pH 3.4, citrate PBS, 4 h", "result": 6.6, "unit": "%"}, {"measurement": "percent Pt released", "setting": "[1]; pH 3.4, citrate PBS, 8 h, 100% N,O-chelate, approx. 20 kDa", "result": "12% and 12.0 ± 0.1%"}, {"measurement": "percent Pt released", "setting": "[1]; pH 3.4, citrate PBS, 24 h, 100% N,O-chelate, approx. 20 kDa", "result": "30% and 29.1 ± 3.9%"}, {"measurement": "percent Pt released", "setting": "[1]; pH 4.4, citrate PBS, 1 h", "result": "0.9 ± 0.1", "unit": "%"}, {"measurement": "percent Pt released", "setting": "[1]; pH 4.4, citrate PBS, 2 h", "result": 1.9, "unit": "%"}, {"measurement": "percent Pt released", "setting": "[1]; pH 4.4, citrate PBS, 4 h", "result": "3.3 ± 0.4", "unit": "%"}, {"measurement": "percent Pt released", "setting": "[1]; pH 4.4, citrate PBS, 8 h", "result": "5.1 ± 1.2", "unit": "%"}, {"measurement": "percent Pt released", "setting": "[1]; pH 4.4, citrate PBS, 24 h", "result": "17.0 ± 3.6", "unit": "%"}, {"measurement": "percent Pt released", "setting": "[1]; pH 5.4, citrate PBS, 1 h", "result": 0.5, "unit": "%"}, {"measurement": "percent Pt released", "setting": "[1]; pH 5.4, citrate PBS, 2 h", "result": "0.9 ± 0.08", "unit": "%"}, {"measurement": "percent Pt released", "setting": "[1]; pH 5.4, citrate PBS, 4 h", "result": "1.4 ± 0.2", "unit": "%"}, {"measurement": "percent Pt released", "setting": "[1]; pH 5.4, citrate PBS, 8 h", "result": "2.6 ± 0.4", "unit": "%"}, {"measurement": "percent Pt released", "setting": "[1]; pH 5.4, citrate PBS, 24 h", "result": 7.3, "unit": "%"}, {"measurement": "percent Pt released", "setting": "[1]; pH 6.4, citrate PBS, 1 h", "result": 0.4, "unit": "%"}, {"measurement": "percent Pt released", "setting": "[1]; pH 6.4, citrate PBS, 2 h", "result": "0.7 ± 0.07", "unit": "%"}, {"measurement": "percent Pt released", "setting": "[1]; pH 6.4, citrate PBS, 4 h", "result": "0.9 ± 0.06", "unit": "%"}, {"measurement": "percent Pt released", "setting": "[1]; pH 6.4, citrate PBS, 8 h", "result": "1.3 ± 0.1", "unit": "%"}, {"measurement": "percent Pt released", "setting": "[1]; pH 6.4, citrate PBS, 24 h", "result": "2.7 ± 0.1", "unit": "%"}, {"measurement": "percent Pt released", "setting": "[1]; pH 7.4, citrate PBS, 1 h", "result": "0.36 ± 0.01", "unit": "%"}, {"measurement": "percent Pt released", "setting": "[1]; pH 7.4, citrate PBS, 2 h", "result": "0.5 ± 0.07", "unit": "%"}, {"measurement": "percent Pt released", "setting": "[1]; pH 7.4, citrate PBS, 4 h", "result": "0.7 ± 0.04", "unit": "%"}, {"measurement": "percent Pt released", "setting": "[1]; pH 7.4, citrate PBS, 8 h", "result": "0.9 ± 0.02", "unit": "%"}, {"measurement": "percent Pt released", "setting": "[1]; pH 7.4, citrate PBS, 24 h", "result": "1.6 ± 0.0", "unit": "%"}, {"measurement": "percent Pt released", "setting": "[1]; pH 8.2, citrate PBS, 1 h", "result": "0.39 ± 0.0", "unit": "%"}, {"measurement": "percent Pt released", "setting": "[1]; pH 8.2, citrate PBS, 2 h", "result": "0.7 ± 0.08", "unit": "%"}, {"measurement": "percent Pt released", "setting": "[1]; pH 8.2, citrate PBS, 4 h", "result": "0.7 ± 0.04", "unit": "%"}, {"measurement": "percent Pt released", "setting": "[1]; pH 8.2, citrate PBS, 8 h", "result": "0.8 ± 0.16", "unit": "%"}, {"measurement": "percent Pt released", "setting": "[1]; pH 8.2, citrate PBS, 24 h", "result": "1.8 ± 0.02", "unit": "%"}, {"measurement": "IC50", "setting": "Bl6FI0 melanoma cells", "result": 3.4, "unit": "µM"}]}
